Assay results reported in patent US20180355009A1.
“And” between values parts separate entries of the source, which are not always exact repeats. Identical values can stand only once.

Biological target: human IL-22 receptor complex IL22R1 and IL10R2, overexpressed on HEK 293 cells (human) (UniProt Q8N6P7)
Test: cell-based or functional assay

human IL-22 receptor complex IL22R1 and IL10R2, overexpressed on HEK 293 cells (human), sequence (Q8N6P7 16-574, chain 1 of 2): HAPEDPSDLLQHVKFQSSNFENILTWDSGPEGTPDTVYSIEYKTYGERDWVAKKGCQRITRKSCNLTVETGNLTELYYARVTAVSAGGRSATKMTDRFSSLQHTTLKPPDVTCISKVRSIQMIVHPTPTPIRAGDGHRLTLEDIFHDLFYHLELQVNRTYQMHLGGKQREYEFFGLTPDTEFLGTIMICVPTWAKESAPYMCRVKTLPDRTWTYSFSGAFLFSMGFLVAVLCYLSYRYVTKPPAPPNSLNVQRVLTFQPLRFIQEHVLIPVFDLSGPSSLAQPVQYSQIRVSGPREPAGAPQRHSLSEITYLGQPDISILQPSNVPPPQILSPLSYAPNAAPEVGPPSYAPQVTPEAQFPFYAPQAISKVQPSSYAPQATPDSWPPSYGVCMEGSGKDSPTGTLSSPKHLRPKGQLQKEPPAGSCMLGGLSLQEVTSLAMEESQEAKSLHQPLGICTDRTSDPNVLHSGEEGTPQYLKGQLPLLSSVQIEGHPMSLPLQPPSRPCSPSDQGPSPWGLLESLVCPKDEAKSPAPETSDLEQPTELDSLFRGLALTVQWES
human IL-22 receptor complex IL22R1 and IL10R2, overexpressed on HEK 293 cells (human), sequence (Q08334 20-325, chain 2 of 2, further chain): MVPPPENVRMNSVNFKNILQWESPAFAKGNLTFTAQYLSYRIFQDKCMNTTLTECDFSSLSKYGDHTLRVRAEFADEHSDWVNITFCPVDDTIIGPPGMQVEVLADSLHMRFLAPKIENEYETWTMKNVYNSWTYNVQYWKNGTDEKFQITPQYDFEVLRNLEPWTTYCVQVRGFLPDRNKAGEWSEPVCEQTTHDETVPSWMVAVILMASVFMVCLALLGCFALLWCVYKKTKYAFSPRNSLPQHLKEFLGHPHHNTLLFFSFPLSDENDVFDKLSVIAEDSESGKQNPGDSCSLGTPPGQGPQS

- potency in the STAT3 luciferase reporter assay, against the IL-22 Fc fusion proteins: 2 fold and 3 fold
Substance: native IL-22 protein produced in CHO cells (from UniProt Q9GZX6 34-179) (ligand)
